These results are taken from patent US5352595, “Myod regulatory region” (Fred Hutchinson Cancer Research Center).

The data set addresses MyoD:E12 heterodimer (UniProt P10085;P15806 P10085:1-318,P15806:1-651). The data set is described as follows: EMSA. In general terms: Mobility shift assays separate free from complexed probe on a gel.

MyoD:E12 heterodimer, sequence (P10085 whole entry, chain 1 of 2): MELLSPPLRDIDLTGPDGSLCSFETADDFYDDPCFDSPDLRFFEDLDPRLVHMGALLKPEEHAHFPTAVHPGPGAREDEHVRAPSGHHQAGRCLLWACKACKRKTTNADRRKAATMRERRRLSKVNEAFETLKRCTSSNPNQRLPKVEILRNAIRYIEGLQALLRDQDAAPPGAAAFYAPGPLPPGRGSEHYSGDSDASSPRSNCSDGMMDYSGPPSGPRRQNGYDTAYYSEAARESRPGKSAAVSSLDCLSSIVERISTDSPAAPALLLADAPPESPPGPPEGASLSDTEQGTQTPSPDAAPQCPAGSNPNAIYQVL
MyoD:E12 heterodimer, sequence (P15806 whole entry, chain 2 of 2): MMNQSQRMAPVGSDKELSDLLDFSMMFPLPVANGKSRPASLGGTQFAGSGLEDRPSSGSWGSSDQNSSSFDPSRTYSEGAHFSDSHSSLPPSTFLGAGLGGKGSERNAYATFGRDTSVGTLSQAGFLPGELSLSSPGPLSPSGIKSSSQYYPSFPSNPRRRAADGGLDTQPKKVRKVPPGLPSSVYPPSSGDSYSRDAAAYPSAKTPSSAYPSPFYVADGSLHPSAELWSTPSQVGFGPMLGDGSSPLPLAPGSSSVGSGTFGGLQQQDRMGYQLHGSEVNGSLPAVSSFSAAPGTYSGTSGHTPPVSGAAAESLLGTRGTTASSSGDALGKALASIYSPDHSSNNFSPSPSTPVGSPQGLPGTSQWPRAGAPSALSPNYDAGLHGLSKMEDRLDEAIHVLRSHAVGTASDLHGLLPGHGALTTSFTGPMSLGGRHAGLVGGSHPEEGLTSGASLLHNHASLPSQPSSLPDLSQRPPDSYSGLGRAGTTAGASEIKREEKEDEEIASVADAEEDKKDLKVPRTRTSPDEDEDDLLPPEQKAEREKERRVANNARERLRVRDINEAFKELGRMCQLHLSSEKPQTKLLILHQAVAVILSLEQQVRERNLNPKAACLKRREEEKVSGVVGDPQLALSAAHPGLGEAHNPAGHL

B1: myoD PRR A site (-190) (dsDNA)
DNA 1: GGCAGCTGCC
DNA 2: GGCAGCTGCC
With B1, the binding result is on record as “binds”.
